{"source": "patent US20240368263A1", "about": "(PROMETHEUS BIOSCIENCES, published 2024)"}
{"target": "T1, human TL1A (Fitzgerald, Prod. #30R-AT070) (human, UniProt O95150 72-251, limits assumed, biotinylated with EZ-Link Sulfo-NHS-LC-Biotin where used as soluble antigen)", "T1 construct": "also called TNFSF15; biotinylated human TL1A", "T1 sequence (looked up)": "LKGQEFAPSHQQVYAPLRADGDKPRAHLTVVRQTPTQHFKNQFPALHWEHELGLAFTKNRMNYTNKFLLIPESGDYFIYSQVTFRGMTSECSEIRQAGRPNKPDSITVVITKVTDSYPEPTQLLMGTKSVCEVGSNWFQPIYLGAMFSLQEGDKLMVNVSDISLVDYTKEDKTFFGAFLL", "assay": "capture lift screen and Fab ELISA on coated TL1A"}
{"binder": "clone 5-1 Fab (12835 framework variant) (Fab, V domains shown, Fab) VH: QVQLVQSGAEVKKPGASVKLSCKASGFDIQDTYMHWVRQAPGQGLEWMGRIDPASGHTKYDPKFQVRVTMTRDTSTSTVYMELSSLRSEDTAVYYCSRSGGLPDVWGQGTTVTVSS VL: EIVLTQSPGTLSLSPGERATLSCRASSSVSYMYWYQQKPGQAPRPWIYATSNLASGVPDRFSGSGSGTDYTLTISRLEPEDFAVYYCQQWSGNPRTFGGGTKLEIK", "binding result": "binds"}
{"binder": "clone 5-2 Fab (12835 framework variant) (Fab, V domains shown, Fab) VH: QVQLVQSGAEVKKPGASVKLSCKASGFDIQDTYMHWVRQAPGQGLEWMGRIDPASGHTKYDPKFQVRVTMTRDTSTSTVYMELSSLRSEDTAVYYCSRSGGLPDVWGQGTTVTVSS VL: EIVLTQSPGTLSLSPGERVTMSCRASSSVSYMYWYQQKPGQAPRPWIYATSNLASGVPDRFSGSGSGTDYTLTISRLEPEDFAVYYCQQWSGNPRTFGGGTKLEIK", "binding result": "binds"}
{"binder": "clone 5-4 Fab (12835 framework variant) (Fab, V domains shown, Fab) VH: QVQLVQSGAEVKKPGASVKLSCKASGFDIQDTYMHWVRQAPGQGLEWMGRIDPASGHTKYDPKFQVRVTMTTDTSTSTVYMELSSLRSEDTAVYYCSRSGGLPDVWGQGTTVTVSS VL: EIVLTQSPGTLSLSPGERATLSCRASSSVSYMYWYQQKPGQAPRPWIYATSNLASGVPDRFSGSGSGTDYTLTISRLEPEDFAVYYCQQWSGNPRTFGGGTKLEIK", "binding result": "binds"}
{"binder": "clone 7-4 Fab (12835 framework variant) (Fab, V domains shown, Fab) VH: QVQLVQSGAEVKKPGASVKLSCKASGFDIQDTYMHWVRQAPGQGLEWMGRIDPASGHTKYDPKFQVRVTMTTDTSTSTVYMELSSLRSEDTAVYYCSRSGGLPDVWGQGTTVTVSS VL: EIVLTQSPGTLSLSPGERATLSCRASSSVSYMYWYQQKPGQAPRLWIYATSNLASGVPDRFSGSGSGTDYTLTISRLEPEDFAVYYCQQWSGNPRTFGGGTKLEIK", "binding result": "binds"}
{"binder": "clone 9-1 Fab (12835 framework variant) (Fab, V domains shown, Fab) VH: QVQLVQSGAEVKKPGASVKLSCKASGFDIQDTYMHWVRQAPGQGLEWMGRIDPASGHTKYDPKFQVRVTMTRDTSTSTVYMELSSLRSEDTAVYYCSRSGGLPDVWGQGTTVTVSS VL: EIVLTQSPGTLSLSPGERATLSCRASSSVSYMYWYQQKPGQAPRPWIYATSNLASGVPDRFSGSGSGTDFTLTISRLEPEDFAVYYCQQWSGNPRTFGGGTKLEIK", "binding result": "binds"}
{"binder": "clone 10-1 Fab (12835 framework variant) (Fab, V domains shown, Fab) VH: QVQLVQSGAEVKKPGASVKLSCKASGFDIQDTYMHWVRQAPGQGLEWMGRIDPASGHTKYDPKFQVRVTMTRDTSTSTVYMELSSLRSEDTAVYYCSRSGGLPDVWGQGTTVTVSS VL: EIVLTQSPGTLSLSPGERATLSCRASSSVSYMYWYQQKPGQAPRLLIYATSNLASGVPDRFSGSGSGTDYTLTISRLEPEDFAVYYCQQWSGNPRTFGGGTKLEIK", "binding result": "binds"}
{"binder": "clone 13-2 Fab (12835 framework variant) (Fab, V domains shown, Fab) VH: QVQLVQSGAEVKKPGASVKLSCKASGFDIQDTYMHWVRQAPGQGLEWMGRIDPASGHTKYDPKFQVRVTMTRDTSTSTVYMELSSLRSEDTAVYYCARSGGLPDVWGQGTTVTVSS VL: EIVLTQSPGTLSLSPGERATLSCRASSSVSYMYWYQQKPGQAPRPWIYATSNLASGVPDRFSGSGSGTDYTLTISRLEPEDFAVYYCQQWSGNPRTFGGGTKLEIK", "binding result": "binds"}
{"binder": "clone 16-2 Fab (12835 framework variant) (Fab, V domains shown, Fab) VH: QVQLVQSGAEVKKPGASVKLSCKASGFDIQDTYMHWVRQAPGQGLEWMGRIDPASGHTKYDPKFQVRVTMTRDTSTSTVYMELSSLRSEDTAVYYCSRSGGLPDVWGQGTTVTVSS VL: EIVLTQSPGTLSLSPGERATLSCRASSSVSYMYWYQQKPGQAPRLLIYATSNLASGIPDRFSGSGSGTDYTLTISRLEPEDFAVYYCQQWSGNPRTFGGGTKLEIK", "binding result": "binds"}
{"binder": "clone 17-2 Fab (12835 framework variant) (Fab, V domains shown, Fab) VH: QVQLVQSGAEVKKPGASVKLSCKASGFDIQDTYMHWVRQAPGQGLEWMGRIDPASGHTKYDPKFQVRVTMTRDTSTSTVYMELSSLRSEDTAVYYCSRSGGLPDVWGQGTTVTVSS VL: EIVLTQSPGTLSLSPGERATLSCRASSSVSYMYWYQQKPGQAPRLLIYATSNLASGVPDRFSGSGSGTDFTLTISRLEPEDFAVYYCQQWSGNPRTFGGGTKLEIK", "binding result": "binds"}
{"binder": "clone 19 Fab (12835 framework variant) (Fab, V domains shown, Fab) VH: QVQLVQSGAEVKKPGASVKLSCKASGFDIQDTYMHWVRQAPGQGLEWMGRIDPASGHTKYDPKFQVRVTMTTDTSTSTVYMELSSLRSEDTAVYYCSRSGGLPDVWGQGTTVTVSS VL: EIVLTQSPGTLSLSPGERATLSCRASSSVSYMYWYQQKPGQAPRLLIYATSNLASGIPDRFSGSGSGTDYTLTISRLEPEDFAVYYCQQWSGNPRTFGGGTKLEIK", "binding result": "binds"}
{"binder": "clone 19-5 Fab (12835 framework variant) (Fab, V domains shown, Fab) VH: QVQLVQSGAEVKKPGASVKVSCKASGFDIQDTYMHWVRQAPGQGLEWMGRIDPASGHTKYDPKFQVRVTMTRDTSTSTVYMELSSLRSEDTAVYYCSRSGGLPDVWGQGTTVTVSS VL: EIVLTQSPGTLSLSPGERATLSCRASSSVSYMYWYQQKPGQAPRLLIYATSNLASGVPDRFSGSGSGTDYTLTISRLEPEDFAVYYCQQWSGNPRTFGGGTKLEIK", "binding result": "binds"}
{"binder": "clone 20-7 Fab (12835 framework variant) (Fab, V domains shown, Fab) VH: QVQLVQSGAEVKKPGASVKLSCKASGFDIQDTYMHWVRQAPGQGLEWMGRIDPASGHTKYDPKFQVRVTMTRDTSTSTVYMELSSLRSEDTAVYYCARSGGLPDVWGQGTTVTVSS VL: EIVLTQSPGTLSLSPGERATLSCRASSSVSYMYWYQQKPGQAPRLLIYATSNLASGVPDRFSGSGSGTDYTLTISRLEPEDFAVYYCQQWSGNPRTFGGGTKLEIK", "binding result": "binds"}
{"binder": "clone 21 Fab (12835 framework variant) (Fab, V domains shown, Fab) VH: QVQLVQSGAEVKKPGASVKLSCKASGFDIQDTYMHWVRQAPGQGLEWMGRIDPASGHTKYDPKFQVRVTMTTDTSTSTVYMELSSLRSEDTAVYYCSRSGGLPDVWGQGTTVTVSS VL: EIVLTQSPGTLSLSPGERATLSCRASSSVSYMYWYQQKPGQAPRLWIYATSNLASGIPDRFSGSGSGTDYTLTISRLEPEDFAVYYCQQWSGNPRTFGGGTKLEIK", "binding result": "binds"}
{"binder": "clone 22 Fab (12835 framework variant) (Fab, V domains shown, Fab) VH: QVQLVQSGAEVKKPGASVKLSCKASGFDIQDTYMHWVRQAPGQGLEWMGRIDPASGHTKYDPKFQVRVTMTTDTSTSTVYMELSSLRSEDTAVYYCSRSGGLPDVWGQGTTVTVSS VL: EIVLTQSPGTLSLSPGERVTMSCRASSSVSYMYWYQQKPGQAPRPWIYATSNLASGVPDRFSGSGSGTDFTLTISRLEPEDFAVYYCQQWSGNPRTFGGGTKLEIK", "binding result": "binds"}
{"binder": "clone 26 Fab (12835 framework variant) (Fab, V domains shown, Fab) VH: QVQLVQSGAEVKKPGASVKVSCKASGFDIQDTYMHWVRQAPGQGLEWMGRIDPASGHTKYDPKFQVRVTMTTDTSTSTVYMELSSLRSEDTAVYYCSRSGGLPDVWGQGTTVTVSS VL: EIVLTQSPGTLSLSPGERATLSCRASSSVSYMYWYQQKPGQAPRPWIYATSNLASGVPDRFSGSGSGTDYTLTISRLEPEDFAVYYCQQWSGNPRTFGGGTKLEIK", "binding result": "binds"}
{"binder": "clone 27 Fab (12835 framework variant) (Fab, V domains shown, Fab) VH: QVQLVQSGAEVKKPGASVKVSCKASGFDIQDTYMHWVRQAPGQGLEWMGRIDPASGHTKYDPKFQVRVTMTTDTSTSTVYMELSSLRSEDTAVYYCSRSGGLPDVWGQGTTVTVSS VL: EIVLTQSPGTLSLSPGERATLSCRASSSVSYMYWYQQKPGQAPRPLIYATSNLASGVPDRFSGSGSGTDYTLTISRLEPEDFAVYYCQQWSGNPRTFGGGTKLEIK", "binding result": "binds"}
